Patent US20250043002A1 (Regeneron, published 2025)

Tests used:
[1] = target: T1, human CD28 on cells (endogenous on Jurkat/NFkB-Luc cells; human primary CD4+ T cells) (human, UniProt P10747 19-220); assay: cell-based or functional assay
[2] = target: T1, human CD28 on cells (endogenous on …); assay: flow cytometry, Jurkat/NFkB-Luc cells (endogenous CD28)
[3] = target: T1, human CD28 on cells (endogenous on …); assay: cell-based or functional assay; remark: listed apart in the source
[4] = target: T2, human PD-L1 expressed on cells (HEK293/hCD20/hPSMA/hPD-L1; WSU-DLCL2/hPD-L1) (human, UniProt Q9NZQ7 19-290); assay: flow cytometry, HEK293/hCD20/hPSMA/hPD-L1 cells
T2 construct: whole, on cells; also called human programmed death ligand-1
T2 sequence (Q9NZQ7 19-290): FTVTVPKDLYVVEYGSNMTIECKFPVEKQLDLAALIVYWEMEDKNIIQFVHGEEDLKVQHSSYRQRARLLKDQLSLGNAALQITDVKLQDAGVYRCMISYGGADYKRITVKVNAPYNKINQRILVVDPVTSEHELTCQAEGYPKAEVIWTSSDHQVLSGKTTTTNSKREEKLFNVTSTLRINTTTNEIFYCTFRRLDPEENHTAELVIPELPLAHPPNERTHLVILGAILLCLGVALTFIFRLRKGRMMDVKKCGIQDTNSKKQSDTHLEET

[5] = target: T3, hPD-L1-mFc: hPD-L1 extracellular domain (amino acids F19-T239) expressed with the Fc portion of mouse IgG2a … (human; mouse, UniProt Q9NZQ7 19-239); assay: blocking ELISA, 0.7 nM hPD-L1-mFc on plate-coated hPD1-hFc
T3 construct: range 19-239; not shown: Fc portion of mouse IgG2a, amino acids E98-K330
T3 sequence (Q9NZQ7 19-239 limits assumed): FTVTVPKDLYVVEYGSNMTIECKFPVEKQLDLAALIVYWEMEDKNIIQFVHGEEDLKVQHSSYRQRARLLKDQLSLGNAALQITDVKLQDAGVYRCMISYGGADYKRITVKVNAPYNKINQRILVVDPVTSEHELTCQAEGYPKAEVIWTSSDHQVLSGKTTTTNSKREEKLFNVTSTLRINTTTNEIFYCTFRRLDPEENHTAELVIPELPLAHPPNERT

[6] = target: human PD-L1 expressed with a C-terminal myc-myc-hexahistidine tag (hPD-L1.mmH) (human); assay: SPR Biacore 25 C, antibody captured by anti-hFc, hPD-L1.mmH injected
Sequence of human PD-L1 expressed with a C-terminal myc-myc-hexahistidine tag (hPD-L1.mmH) (human) (chain, as listed by the source limits assumed): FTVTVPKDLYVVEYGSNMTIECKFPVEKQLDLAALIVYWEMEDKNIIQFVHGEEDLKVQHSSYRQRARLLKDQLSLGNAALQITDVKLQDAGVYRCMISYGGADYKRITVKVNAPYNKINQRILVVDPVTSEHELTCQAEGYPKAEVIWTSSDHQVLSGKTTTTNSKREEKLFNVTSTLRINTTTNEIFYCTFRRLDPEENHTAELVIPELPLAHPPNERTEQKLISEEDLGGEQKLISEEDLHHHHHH

[7] = target: T2, human PD-L1 expressed on cells …; assay: cell-based or functional assay
[8] = target: human CD28 expressed with a C-terminal murine Fc tag (hCD28.mFc) (human); assay: SPR Biacore 25 C, hCD28.mFc captured by anti-mFc, antibody injected

| Binder | IL2 release EC50, CD4+ T cells + HEK293/hCD20/hPSMA + CD20×CD3 [1] [nM] | IL2 release EC50, CD4+ T cells + HEK293/hCD20/hPSMA/hPD-L1 + CD20×CD3 [1] [nM] | IL2 release MAX (RLU), CD4+ T cells + HEK293/hCD20/hPSMA [1] [RLU] | IL2 release MAX (RLU), CD4+ T cells + HEK293/hCD20/hPSMA + CD20×CD3 [1] [RLU] | IL2 release MAX (RLU), CD4+ T cells + HEK293/hCD20/hPSMA/hPD-L1 [1] [RLU] | IL2 release MAX (RLU), CD4+ T cells + HEK293/hCD20/hPSMA/hPD-L1 + CD20×CD3 [1] [RLU] | EC50 [2] [nM] | Fold Change (max MFI over secondary antibody alone) [2] [fold] | Max gMFI [2] [gMFI] | NFkB-luciferase EC50, Jurkat/NFkB-Luc + HEK293/hCD20/hPSMA/hPD-L1 + CD20×CD3 [3] [nM] | NFkB-luciferase MAX (RLU), Jurkat/NFkB-Luc + HEK293/hCD20/hPSMA [3] [RLU] | NFkB-luciferase MAX (RLU), Jurkat/NFkB-Luc + HEK293/hCD20/hPSMA + CD20×CD3 [3] [RLU] | NFkB-luciferase MAX (RLU), Jurkat/NFkB-Luc + HEK293/hCD20/hPSMA/hPD-L1 [3] [RLU] | NFkB-luciferase MAX (RLU), Jurkat/NFkB-Luc + HEK293/hCD20/hPSMA/hPD-L1 + CD20×CD3 [3] [RLU] | Fold Change (max MFI over secondary antibody alone) [4] [fold] | Max gMFI [4] [gMFI] | binding result [4] | % Blocking at 100 nM mAb [5] [%] | 90 nM mAb Bind (RU) [8] [RU] | Kd [8] [nM] | also measured |
| --- | --- | --- | --- | --- | --- | --- | --- | --- | --- | --- | --- | --- | --- | --- | --- | --- | --- | --- | --- | --- | --- |
| mAb14226 (antibody, V domains shown, Bivalent parental antibody; also called parental bivalent anti-CD28 antibody; CD28 bivalent control antibody) VH: QVQLQESGPGLVKPSETLSLTCTVSGGSISSYYWSWIRQPPGKGLEWIGYIYYSGITHYNPSLKSRVTISVDTSKIQFSLKLSSVTAADTAVYYCARWGVRRDYYYYGMDVWGQGTTVTVSS VL: not shown | 0.116 | 2.67 | 2910 | 64400 | 2860 | 38800 | 0.73 | 101 | 43000 | 0.0875 | 73200 | 649000 | 60800 | 596000 |  |  |  |  |  |  | NFkB-luciferase EC50, Jurkat/NFkB-Luc + HEK293/hCD20/hPSMA [3]: 5.69 nM; NFkB-luciferase EC50, Jurkat/NFkB-Luc + HEK293/hCD20/hPSMA + CD20×CD3 [3]: 0.0514 nM |
| mAb14193 (antibody, V domains shown, Bivalent parental antibody; also called parental bivalent anti-CD28 antibody; CD28 bivalent control antibody) VH: EVQLVESGGGLVQPGGSLRLSCAASGFTFSTYAMTWVRQAPGKGLEWVSFISGSGDNTYYADSVKGRFTISRDNSKNTLYLQMNSLRADDSAIYHCAKDSGYCSSGGCSLYFYYGMDVWGQGTTVTVSS VL: not shown | 24.9 |  | 3110 | 33600 | 3070 | 4720 | 21 | 42.5 | 18000 |  |  |  |  |  | 3 | 4700 | no binding | 6 |  |  |  |
| REGN6192 (bispecific antibody, human IgG4 S228P, kappa, common light chain 1-39; also called PD-L1×CD28; anti-PD-L1 × anti-CD28 bispecific antibody) heavy 1: EVQLVESGGGLVQPGRSLRLSCAASGFTFDDYALHWVRQAPGKGLEWVSGISWTGGTIDYADSVKGRFTISRDNAKNSLYLQMSSLRTEDTAIYYCTRDIRGNWKYGGWFDPWGQGTLVTVSSASTKGPSVFPLAPCSRSTSESTAALGCLVKDYFPEPVTVSWNSGALTSGVHTFPAVLQSSGLYSLSSVVTVPSSSLGTKTYTCNVDHKPSNTKVDKRVESKYGPPCPPCPAPPVAGPSVFLFPPKPKDTLMISRTPEVTCVVVDVSQEDPEVQFNWYVDGVEVHNAKTKPREEQFNSTYRVVSVLTVLHQDWLNGKEYKCKVSNKGLPSSIEKTISKAKGQPREPQVYTLPPSQEEMTKNQVSLTCLVKGFYPSDIAVEWESNGQPENNYKTTPPVLDSDGSFFLYSRLTVDKSRWQEGNVFSCSVMHEALHNHYTQKSLSLSLGK heavy 2: EVQLVESGGGLVQPGGSLRLSCAASGFTFSTYAMTWVRQAPGKGLEWVSFISGSGDNTYYADSVKGRFTISRDNSKNTLYLQMNSLRADDSAIYHCAKDSGYCSSGGCSLYFYYGMDVWGQGTTVTVSSASTKGPSVFPLAPCSRSTSESTAALGCLVKDYFPEPVTVSWNSGALTSGVHTFPAVLQSSGLYSLSSVVTVPSSSLGTKTYTCNVDHKPSNTKVDKRVESKYGPPCPPCPAPPVAGPSVFLFPPKPKDTLMISRTPEVTCVVVDVSQEDPEVQFNWYVDGVEVHNAKTKPREEQFNSTYRVVSVLTVLHQDWLNGKEYKCKVSNKGLPSSIEKTISKAKGQPREPQVYTLPPSQEEMTKNQVSLTCLVKGFYPSDIAVEWESNGQPENNYKTTPPVLDSDGSFFLYSRLTVDKSRWQEGNVFSCSVMHEALHNRFTQKSLSLSPGK light: not shown | 16.4 | 0.104 | 3870 | 25200 | 2690 | 144000 |  | 24.1 | 10000 | 0.243 | 17200 | 444000 | 110000 | 2.32e+06 | 876 | 1.4e+06 |  | 97 | 15.4 | 13.2 | 30 nM hPD-L1.mmH Bind (RU) [6]: 34.9 RU; Kd [6]: 0.103 nM; koff [6]: 6.18e-05 s⁻¹; kon [6]: 600000 M⁻¹ s⁻¹; t1/2 [6]: 187 min; EC50 [4]: 2.5 nM; IC50 [5]: 1.2 nM; AP-1 luciferase EC50, WSU-DLCL2/hPD-L1 + Jurkat/AP1-Luc/hPD1 [7]: 0.183 nM; AP-1 luciferase MAX (RLU), WSU-DLCL2/hPD-L1 + Jurkat/AP1-Luc/hPD1 [7]: 1.19e+06 RLU; koff [8]: 0.000342 s⁻¹; kon [8]: 25900 M⁻¹ s⁻¹; t1/2 [8]: 33.8 min |
| REGN6194 (bispecific antibody, human IgG4 S228P, kappa, also called PD-L1×CD28; anti-PD-L1 × anti-CD28 bispecific antibody) heavy 1: QVQLVQSGTEVKKPGASVKVSCKASGYTFTAYYMHWVRQAPGQGLDWMGWISPNSGFTNYAQKFQGRVTMTRDTSINTFYMELSGLRSDDTAVYYCAREGSTHHNSFDPWGQGTLVTVSSASTKGPSVFPLAPCSRSTSESTAALGCLVKDYFPEPVTVSWNSGALTSGVHTFPAVLQSSGLYSLSSVVTVPSSSLGTKTYTCNVDHKPSNTKVDKRVESKYGPPCPPCPAPPVAGPSVFLFPPKPKDTLMISRTPEVTCVVVDVSQEDPEVQFNWYVDGVEVHNAKTKPREEQFNSTYRVVSVLTVLHQDWLNGKEYKCKVSNKGLPSSIEKTISKAKGQPREPQVYTLPPSQEEMTKNQVSLTCLVKGFYPSDIAVEWESNGQPENNYKTTPPVLDSDGSFFLYSRLTVDKSRWQEGNVFSCSVMHEALHNHYTQKSLSLSLGK heavy 2: QVQLQESGPGLVKPSETLSLTCTVSGGSISSYYWSWIRQPPGKGLEWIGYIYYSGITHYNPSLKSRVTISVDTSKIQFSLKLSSVTAADTAVYYCARWGVRRDYYYYGMDVWGQGTTVTVSSASTKGPSVFPLAPCSRSTSESTAALGCLVKDYFPEPVTVSWNSGALTSGVHTFPAVLQSSGLYSLSSVVTVPSSSLGTKTYTCNVDHKPSNTKVDKRVESKYGPPCPPCPAPPVAGPSVFLFPPKPKDTLMISRTPEVTCVVVDVSQEDPEVQFNWYVDGVEVHNAKTKPREEQFNSTYRVVSVLTVLHQDWLNGKEYKCKVSNKGLPSSIEKTISKAKGQPREPQVYTLPPSQEEMTKNQVSLTCLVKGFYPSDIAVEWESNGQPENNYKTTPPVLDSDGSFFLYSRLTVDKSRWQEGNVFSCSVMHEALHNRFTQKSLSLSPGK light: not shown |  |  | 5480 | 33700 | 2870 | 165000 | 7.5 | 90.4 | 28000 | 0.028 | 11400 | 425000 | 16700 | 3.6e+06 |  |  |  |  | 39.4 | 24.5 | koff [8]: 0.00326 s⁻¹; kon [8]: 133000 M⁻¹ s⁻¹; t1/2 [8]: 3.5 min |
| mAb14216 (antibody, V domains shown, Bivalent parental antibody; also called parental bivalent anti-CD28 antibody; CD28 bivalent control antibody) VH: EVQLVESGGGLVQPGGSLRLSCAASGFTFSRNNMHWVRQAPGKGLEYVSGISSNGGRTYYADSVKGRFTISRDNSKNTLYLQMGGLRAADMAVYFCTRDDELLSFDYWGQGTLVTVSS VL: not shown | 9.54 |  | 3040 | 25600 | 2860 | 3620 | 9.3 | 60.3 | 25000 |  |  |  |  |  | 1.2 | 1800 | no binding | 1 |  |  |  |
